Two substances from patent US20160120976A1 can be followed below.

In one test the target is CD20 (human) (UniProt P11836). Description: cell-based or functional assay.
Another test addresses CD74 (human) (UniProt P04233). Description: cell-based or functional assay.

Sequence of CD74 (human) (P04233 whole entry): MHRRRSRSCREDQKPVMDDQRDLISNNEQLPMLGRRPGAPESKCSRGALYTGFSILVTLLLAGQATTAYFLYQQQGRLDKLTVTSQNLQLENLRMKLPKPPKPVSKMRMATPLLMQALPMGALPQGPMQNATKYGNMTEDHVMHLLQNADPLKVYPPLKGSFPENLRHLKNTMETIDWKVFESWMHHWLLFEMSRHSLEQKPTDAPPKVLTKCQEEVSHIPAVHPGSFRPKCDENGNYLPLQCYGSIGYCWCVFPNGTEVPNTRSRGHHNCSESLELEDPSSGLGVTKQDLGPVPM
Sequence of CD20 (human) (P11836 whole entry): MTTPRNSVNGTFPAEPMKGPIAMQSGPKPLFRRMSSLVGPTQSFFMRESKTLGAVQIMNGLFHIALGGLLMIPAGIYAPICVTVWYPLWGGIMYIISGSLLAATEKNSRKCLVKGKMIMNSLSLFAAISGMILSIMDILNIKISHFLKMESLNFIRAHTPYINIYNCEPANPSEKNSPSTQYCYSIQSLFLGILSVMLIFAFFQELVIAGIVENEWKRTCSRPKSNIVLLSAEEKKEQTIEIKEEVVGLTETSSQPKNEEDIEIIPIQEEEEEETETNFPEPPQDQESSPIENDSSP

In the test with CD20 (human), “20-(74)-(74) bispecific hexavalent antibody (HexAb): CH3-AD2-IgG-veltuzumab with a pair of stabilized dimers of CH1-DDD2-Fab-milatuzumab (bispecific antibody)” registered an EC50 (nM), MTS cell proliferation assay, Daudi of 5.3 nM; an EC50 (nM), MTS cell proliferation assay, Granta-519 of 2 nM; an EC50 (nM), MTS cell proliferation assay, JeKo-1 of 3 nM; an EC50 (nM), MTS cell proliferation assay, Mino of 13.7 nM. Besides, in the test with CD20 (human), the EC50 (nM), MTS cell proliferation assay, Raji turned out to be 0.3 nM; the Percent inhibition (%) at 100 nM, MTS assay, Granta-519 stood at 55%; the Percent inhibition (%) at 100 nM, MTS assay, JeKo-1 was 70%; the Percent inhibition (%) at 100 nM, MTS assay, Mino was 80%. In the test with CD20 (human), this substance displayed a Percent inhibition (%) at 100 nM, MTS assay, Raji of 50%; a homotypic adhesion (%), JeKo-1, 2 h, 10 nM of 90%; a homotypic adhesion (%), JeKo-1, 24 h, 10 nM greater than 95%. Moreover, in the test with CD74 (human), the EC50 (nM), MTS cell proliferation assay, Daudi stood at 5.3 nM; the EC50 (nM), MTS cell proliferation assay, Granta-519 stood at 2 nM; the EC50 (nM), MTS cell proliferation assay, JeKo-1 was found to be 3 nM; the EC50 (nM), MTS cell proliferation assay, Mino worked out at 13.7 nM. Also, in the test with CD74 (human), the EC50 (nM), MTS cell proliferation assay, Raji came to 0.3 nM; the EC50, MTS assay, in CLL lines WAC, MEC-1, ALL lines REH-1, MN60 and MM lines CAG, RPMI8226, KMS11, KMS12-BM, KMS12-PE was greater than 100 nM; the Percent inhibition (%) at 100 nM, MTS assay, Granta-519 is 55%; the Percent inhibition (%) at 100 nM, MTS assay, JeKo-1 is 70%. For the same substance, in the test with CD74 (human), the Percent inhibition (%) at 100 nM, MTS assay, Mino turned out to be 80%; the Percent inhibition (%) at 100 nM, MTS assay, Raji was determined as 50%; the homotypic adhesion (%), JeKo-1, 2 h, 10 nM was determined as 90%; the homotypic adhesion (%), JeKo-1, 24 h, 10 nM is greater than 95%.

Take “74-(20)-(20) bispecific hexavalent antibody (HexAb): CH3-AD2-IgG-milatuzumab with a pair of stabilized dimers of CH1-DDD2-Fab-veltuzumab (bispecific antibody)”: in the test with CD20 (human), the EC50 (nM), MTS cell proliferation assay, Daudi is 1.2 nM; the EC50 (nM), MTS cell proliferation assay, Granta-519 was 0.6 nM; the EC50 (nM), MTS cell proliferation assay, JeKo-1 was 2 nM; the EC50 (nM), MTS cell proliferation assay, Mino amounted to 1.2 nM. In the test with CD20 (human), this substance came in with an EC50 (nM), MTS cell proliferation assay, Raji of 0.3 nM; a Percent inhibition (%) at 100 nM, MTS assay, Granta-519 of 65%; a Percent inhibition (%) at 100 nM, MTS assay, JeKo-1 of 90%; a Percent inhibition (%) at 100 nM, MTS assay, Raji of 50%. In the test with CD20 (human), this substance displayed a homotypic adhesion (%), JeKo-1, 2 h, 10 nM of 90% and a homotypic adhesion (%), JeKo-1, 24 h, 10 nM greater than 95%. Besides, in the test with CD74 (human), the EC50 (nM), MTS cell proliferation assay, Daudi was determined as 1.2 nM; the EC50 (nM), MTS cell proliferation assay, Granta-519 turned out to be 0.6 nM; the EC50 (nM), MTS cell proliferation assay, JeKo-1 was determined as 2 nM; the EC50 (nM), MTS cell proliferation assay, Mino is 1.2 nM. In addition, in the test with CD74 (human), the EC50 (nM), MTS cell proliferation assay, Raji amounted to 0.3 nM; the EC50, MTS assay, in CLL lines WAC, MEC-1, ALL lines REH-1, MN60 and MM lines CAG, RPMI8226, KMS11, KMS12-BM, KMS12-PE is greater than 100 nM; the Percent inhibition (%) at 100 nM, MTS assay, Granta-519 came to 65%; the Percent inhibition (%) at 100 nM, MTS assay, JeKo-1 worked out at 90%. In the test with CD74 (human), the Percent inhibition (%) at 100 nM, MTS assay, Mino worked out at 100%; the Percent inhibition (%) at 100 nM, MTS assay, Raji came to 50%; the homotypic adhesion (%), JeKo-1, 2 h, 10 nM came to 90%; the homotypic adhesion (%), JeKo-1, 24 h, 10 nM is greater than 95%.
